Experimental findings from patent publication US20160310583A1 (SUMITOMO DAINIPPON PHARMA, published 2016) are described below.

Read-outs that look alike come from different tables or passages of the source.

Experiment in all cases: MHC class I stabilization on T2-A24 cells, flow cytometry, 100 ug/mL peptide
The target of experiment [1] is T1, HLA-A*24:02 (human).
T1 construct: whole, on cells; MHC class I molecule, empty until peptide is added; detected with FITC anti-HLA-A24 antibody 17A10

The target of experiment [2] is T2, HLA-A*02:01 (human).
T2 construct: whole, on cells; MHC class I molecule, empty until peptide is added; detected with FITC anti-HLA-A02 antibody BB7.2

Experiment [3] has as its target T1, HLA-A*24:02. The source holds these as a separate data set.
The target in experiment [4] is T2, HLA-A*02:01. This is another data set of the same source.

For RFLQQRMPTL [FAM83B-derived peptide F475_10], the “MFI (solvent ratio)” value in experiment [1] is 3 ratio to solvent; in experiment [2] it was 1.9 ratio to solvent; in experiment [3] it was ≥ 1.5 ratio to solvent; in experiment [4] it was ≥ 1.5 ratio to solvent.
For KPLPESIPKL [FAM83B-derived peptide F593_10], the “MFI (solvent ratio)” value in experiment [1] was 3.5 ratio to solvent; in experiment [2], 1.9 ratio to solvent; in experiment [3] it was ≥ 1.5 ratio to solvent; in experiment [4] it was ≥ 1.5 ratio to solvent.
For SYMWSFEKAHL [FAM83B-derived peptide F245_11], the “MFI (solvent ratio)” value in experiment [1] was 2.9 ratio to solvent; in experiment [2] it was 1.5 ratio to solvent; in experiment [3], ≥ 1.5 ratio to solvent; in experiment [4], ≥ 1.5 ratio to solvent.
